In publication PMC2172161 (The Journal of Cell Biology, 2004):

Target: the molecule itself
Assay: fluorescence microscopy of purified complexes on slides

B1: His6Cdc12–Cdc3–Cdc10–Cdc11 complex (complex)
chain 1: MSAATATAAPVPPPVGISNLPNQRYKIVNEEGGTFTVMLCGESGLGKTTFINTLFQTVLKRADGQQHRQEPIRKTVEIDITRALLEEKHFELRVNVIDTPGFGDNVNNNKAWQPLVDFIDDQHDSYMRQEQQPYRTKKFDLRVHAVLYFIRPTGHGLKPIDIETMKRLSTRANLIPVIAKADTLTAQELQQFKSRIRQVIEAQEIRIFTPPLDADSKEDAKSGSNPDSAAVEHARQLIEAMPFAIVGSEKKFDNGQGTQVVARKYPWGLVEIENDSHCDFRKLRALLLRTYLLDLISTTQEMHYETYRRLRLEGHENTGEGNEDFTLPAIAPARKLSHNPRYKEEENALKKYFTDQVKAEEQRFRQWEQNIVNERIRLNGDLEEIQGKVKKLEEQVKSLQVKKSHLK
chain 2: MSLKEEQVSIKQDPEQEERQHDQFNDVQIKQESQDHDGVDSQYTNGTQNDDSERFEAAESDVKVEPGLGMGITSSQSEKGQVLPDQPEIKFIRRQINGYVGFANLPKQWHRRSIKNGFSFNLLCVGPDGIGKTTLMKTLFNNDDIEANLVKDYEEELANDQEEEEGQGEGHENQSQEQRHKVKIKSYESVIEENGVKLNLNVIDTEGFGDFLNNDQKSWDPIIKEIDSRFDQYLDAENKINRHSINDKRIHACLYFIEPTGHYLKPLDLKFMQSVYEKCNLIPVIAKSDILTDEEILSFKKTIMNQLIQSNIELFKPPIYSNDDAENSHLSERLFSSLPYAVIGSNDIVENYSGNQVRGRSYPWGVIEVDNDNHSDFNLLKNLLIKQFMEELKERTSKILYENYRSSKLAKLGIKQDNSVFKEFDPISKQQEEKTLHEAKLAKLEIEMKTVFQQKVSEKEKKLQKSETELFARHKEMKEKLTKQLKALEDKKKQLELSINSASPNVNHSPVPTKKKGFLR
chain 3: MDPLSSVQPASYVGFDTITNQIEHRLLKKGFQFNIMVVGQSGLGKSTLINTLFASHLIDSATGDDISALPVTKTTEMKISTHTLVEDRVRLNINVIDTPGFGDFIDNSKAWEPIVKYIKEQHSQYLRKELTAQRERFITDTRVHAILYFLQPNGKELSRLDVEALKRLTEIANVIPVIGKSDTLTLDERTEFRELIQNEFEKYNFKIYPYDSEELTDEELELNRSVRSIIPFAVVGSENEIEINGETFRGRKTRWSAINVEDINQCDFVYLREFLIRTHLQDLIETTSYIHYEGFRARQLIALKENANSRSSAHMSSNAIQR
chain 4: MSGIIDASSALRKRKHLKRGITFTVMIVGQSGSGRSTFINTLCGQQVVDTSTTILLPTDTSTEIDLQLREETVELEDDEGVKIQLNIIDTPGFGDSLDNSPSFEIISDYIRHQYDEILLEESRVRRNPRFKDGRVHCCLYLINPTGHGLKEIDVEFIRQLGSLVNIIPVISKSDSLTRDELKLNKKLIMEDIDRWNLPIYNFPFDEDEISDEDYETNMYLRTLLPFAIIGSNEVYEMGGDVGTIRGRKYPWGILDVEDSSISDFVILRNALLISHLHDLKNYTHEILYERYRTEALSGESVAAESIRPNLTKLNGSSSSSTTTRRNTNPFKQSNNINNDVLNPASDMHGQSTGENNETYMTREEQIRLEEERLKAFEERVQQELLLKRQELLQREKELREIEARLEKEAKIKQEE
B1: binds.
